Biological target: PrPC, native state (recombinant human prion protein) (human, UniProt P04156 23-231)

Binder	binding signal
GTTTTGTTACAGTTCGTTTCTTTTCCCTGTCTTGTTTTGTTGTCT (ssDNA, 5'-biotin) [Apt2]	2.41 fluorescence ratio
CTTACGGTGGGGCAATT (ssDNA, 5'-NH2) [Apt1]	2.41 fluorescence ratio

Reference: article PMC3564804, “A Visual Dual-Aptamer Logic Gate for Sensitive Discrimination of Prion Diseases-Associated Isoform with Reusable Magnetic Microparticles and Fluorescence Quantum Dots”
